Experimental data: publication PMC9127583 (iScience, 2022)

Molecular target: full-length Hsp70 (UniProt P0DMV8 1-641)
Assay: NMR titration

Sequence of full-length Hsp70 (P0DMV8 whole entry): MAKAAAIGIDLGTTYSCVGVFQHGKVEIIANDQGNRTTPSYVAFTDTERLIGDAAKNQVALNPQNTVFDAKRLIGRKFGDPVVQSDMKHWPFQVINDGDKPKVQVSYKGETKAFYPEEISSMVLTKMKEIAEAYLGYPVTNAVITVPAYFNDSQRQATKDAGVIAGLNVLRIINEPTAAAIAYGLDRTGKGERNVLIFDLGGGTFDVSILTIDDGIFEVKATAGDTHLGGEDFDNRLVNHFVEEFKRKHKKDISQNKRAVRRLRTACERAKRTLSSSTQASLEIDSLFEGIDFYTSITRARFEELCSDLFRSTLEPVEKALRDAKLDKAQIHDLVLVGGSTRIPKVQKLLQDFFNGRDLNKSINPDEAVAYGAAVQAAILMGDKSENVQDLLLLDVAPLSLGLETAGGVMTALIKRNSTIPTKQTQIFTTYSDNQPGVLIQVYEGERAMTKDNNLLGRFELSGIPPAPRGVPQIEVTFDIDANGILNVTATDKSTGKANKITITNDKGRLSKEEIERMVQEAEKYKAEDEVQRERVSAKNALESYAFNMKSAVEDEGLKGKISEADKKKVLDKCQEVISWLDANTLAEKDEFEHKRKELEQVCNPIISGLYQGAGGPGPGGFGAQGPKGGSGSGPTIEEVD

B1: FUS-LC (residues 1-163) (domain or fragment, UniProt P35637 1-163, looked up)
chain: MASNDYTQQATQSYGAYPTQPGQGYSQQSSQPYGQQSYSGYSQSTDTSGYGQSSYSSYGQSQNTGYGTQSTPQGYGSTGGYGSSQSSQSSYGQQSSYPGYGQQPAPSSTSGSYGSSSQSSSYGQPQSGSYSQQPSYGGQQQSYGQQQSYNPPQGYGQQNQYNS
B1: binds.
